From patent publication US20220251236A1 (Boehringer Ingelheim, published 2022)

Tests used:
Human DLL3-His [1] = molecular target: T1, Human DLL3-His (human, UniProt Q9NYJ7 27-492); experiment: SPR (ProteOn XPR36), bispecific captured on protein A/G, DLL3 as analyte, Example 4A; Table 2A (Example 4A SPR run)
T1 construct: also called huDLL3-His; hu DLL3
T1 sequence: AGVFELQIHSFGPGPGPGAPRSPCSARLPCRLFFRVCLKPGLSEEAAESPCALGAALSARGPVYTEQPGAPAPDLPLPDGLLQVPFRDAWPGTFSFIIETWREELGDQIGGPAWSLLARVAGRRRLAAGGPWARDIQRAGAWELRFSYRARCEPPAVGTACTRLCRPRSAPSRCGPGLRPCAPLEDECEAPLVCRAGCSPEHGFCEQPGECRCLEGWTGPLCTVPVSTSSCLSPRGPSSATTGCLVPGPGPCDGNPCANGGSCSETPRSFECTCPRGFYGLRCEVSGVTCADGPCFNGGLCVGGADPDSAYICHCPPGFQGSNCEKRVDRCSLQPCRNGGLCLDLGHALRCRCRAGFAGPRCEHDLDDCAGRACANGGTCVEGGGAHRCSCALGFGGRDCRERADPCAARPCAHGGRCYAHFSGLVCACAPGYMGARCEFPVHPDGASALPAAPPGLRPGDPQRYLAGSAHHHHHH
Description: (§1) The binding affinity of purified DLL3/CD3 bispecific constructs for recombinant human and cyno DLL3-ECD and Fc-fusion proteins of human and cyno CD3 εγ subunits was determined by Surface Plasmon Resonance (SPR), using a ProteOn XPR36 instrument (Bio-Rad). The running buffer and all dilutions (except where stated) were done in PBS-T-EDTA. The GLM sensor chip (Bio-Rad) was normalized and pre-conditioned as per the manufacturer's recommendations. The sensor chip was activated with equal mixture of EDC/s-NHS in the horizontal direction for 300 sec at a flow rate of 30 ul/min and immobilized with protein A/G (20 ug/ml in 10 mM acetate pH 4.5) in the horizontal direction for 300 sec at a flowrate of 30 ul/min resulting in ˜5000 RU of protein A/G on the surface. The sensor chip was deactivated with 1M ethanolamine HCl in the horizontal direction for 300 sec at a flowrate of 30 μl/min.
For binding kinetic determination to DLL3, bispecific molecules were captured individually on the protein A/G surface vertically for 250 sec at a flowrate of 25 μl/min. The baseline was stabilized by injecting PBS-T-EDTA for 60 sec at a flowrate of 40 μl/min horizontally. The analyte (hu DLL3 or cy DLL3) was injected horizontally over the captured antibody for 600 sec at a flowrate of 40 μl/min and a dissociation for 2700 sec. […]

[2] = molecular target: T2, human DLL3 (endogenous, on SCLC cell lines NCI-H82 and SHP77 and in SCLC tissue) (human, UniProt Q9NYJ7 27-618); experiment: flow cytometry titration on SHP77 cells, PE anti-human secondary, x-fold over background
T2 construct: whole, on cells; also called SCLC cell lines expressing DLL3
T2 sequence (looked up): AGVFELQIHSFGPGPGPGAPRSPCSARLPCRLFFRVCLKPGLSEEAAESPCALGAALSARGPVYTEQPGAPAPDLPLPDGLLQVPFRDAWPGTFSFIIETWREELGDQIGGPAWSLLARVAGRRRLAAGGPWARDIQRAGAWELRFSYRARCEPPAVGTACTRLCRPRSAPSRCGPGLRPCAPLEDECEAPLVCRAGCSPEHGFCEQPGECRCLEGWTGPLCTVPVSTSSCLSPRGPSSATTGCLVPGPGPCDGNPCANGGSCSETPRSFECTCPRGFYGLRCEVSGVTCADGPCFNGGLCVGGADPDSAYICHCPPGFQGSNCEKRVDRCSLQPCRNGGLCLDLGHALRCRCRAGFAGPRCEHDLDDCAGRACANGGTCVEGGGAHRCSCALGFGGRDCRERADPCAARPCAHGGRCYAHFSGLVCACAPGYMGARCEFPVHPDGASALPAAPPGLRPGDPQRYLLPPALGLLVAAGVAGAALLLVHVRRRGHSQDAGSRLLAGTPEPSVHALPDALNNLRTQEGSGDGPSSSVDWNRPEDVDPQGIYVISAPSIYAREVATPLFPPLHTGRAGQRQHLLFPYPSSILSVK
From the text: (§2) Cells (T cells or human SCLC cells) were stained with increasing concentrations of two-step purified DLL3/CD3 binding proteins with increasing concentrations in FACS buffer (PBS/0.5% BSA/0.05% sodium azide). Bound molecules were detected with PE-conjugated anti-human secondary antibody (Sigma-Aldrich, #P8047).

[3] = molecular target: T2, human DLL3 (endogenous, on SCLC cell …); experiment: flow cytometry titration on NCI-H82 cells, PE anti-human secondary, x-fold over background
From the text: as §2

Human DLL3-His [4] = molecular target: T1, Human DLL3-His; experiment: SPR (ProteOn XPR36), bispecific captured on protein A/G, DLL3 as analyte, Example 4A
Description: as §1
For binding kinetic determination to DLL3, bispecific molecules were captured individually on the protein A/G surface vertically for 250 sec at a flowrate of 25 μl/min. The baseline was stabilized by injecting PBS-T-EDTA for 60 sec at a flowrate of 40 μl/min horizontally. The analyte (hu DLL3 or cy DLL3) was injected horizontally over the captured antibody for 600 sec at a flowrate of 40 μl/min and a dissociation for 2700 sec.
(§3) The inter spot (interactions with sensor surface) and blank (PBS-T-EDTA) were subtracted from the raw data.

Cyno CD3 E+G HuFc-6xHis = molecular target: T3, Cyno CD3 E+G HuFc-6xHis (cynomolgus monkey); experiment: SPR (ProteOn XPR36), CD3εγ-Fc amine-coupled, bispecific as analyte, equilibrium fit, Example 4A
T3 construct: also called cy CD3εγ-Fc; Recomb; Cyno CD3 εγ
Description: as §1
For binding kinetic determination to CD3, hu CD3εγ-Fc and cy CD3εγ-Fc (dissolved in pH 4.5 acetate) was immobilized directly onto the sensor surface through amine coupling for 140 sec at a flowrate of 30 μl/min vertically. The baseline was stabilized by injecting PBS-T-EDTA for 60 sec at a flowrate of 40 μl/min horizontally. The analyte (the bispecific molecule) was injected horizontally over the captured CD3εγ-Fc construct for 600 sec at a flowrate of 40 μl/min and a dissociation for 600 sec.
as §3

T3 sequence (chain, as listed by the source limits assumed): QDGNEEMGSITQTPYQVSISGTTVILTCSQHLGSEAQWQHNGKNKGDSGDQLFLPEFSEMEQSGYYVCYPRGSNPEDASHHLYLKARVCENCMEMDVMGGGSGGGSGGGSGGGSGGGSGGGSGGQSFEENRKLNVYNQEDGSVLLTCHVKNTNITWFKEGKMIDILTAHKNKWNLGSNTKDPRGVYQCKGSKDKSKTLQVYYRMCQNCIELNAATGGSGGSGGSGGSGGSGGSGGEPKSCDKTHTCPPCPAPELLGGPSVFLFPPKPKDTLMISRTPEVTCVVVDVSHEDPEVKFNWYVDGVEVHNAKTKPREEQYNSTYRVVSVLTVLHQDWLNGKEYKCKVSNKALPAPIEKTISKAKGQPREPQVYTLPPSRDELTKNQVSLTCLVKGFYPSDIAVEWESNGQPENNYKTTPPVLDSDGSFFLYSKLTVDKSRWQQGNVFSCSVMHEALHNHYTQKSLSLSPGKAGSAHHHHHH

B1: DLL3#3/CD3#1 (bispecific antibody, human IgG1, kappa, lambda, L234A L235A)
chain 1: DIQMTQSPSAMSASVGDRVTITCRASQGISNYLVWFQQKPGKAPKRLIYAVSSLYSGVPSRFSGSGSGTEFTLTISSLQPEDFATYYCLQHDSYPYTFGQGTKLEIKRTVAAPSVFIFPPSDEQLKSGTASVVCLLNNFYPREAKVQWKVDNALQSGNSQESVTEQDSKDSTYSLSSTLTLSKADYEKHKVYACEVTHQGLSSPVTKSFNRGECGGGGSEGKSSGSGSESKSTEGKSSGSGSESKSTGGGGSQVQLVQSGAEVKKPGASVKVSCKASGYTFTSYYVHWVRQAPGQGLEWMVIINPGGGTTSYAQKFLGRVTMTRDTSTNTVYMELKSLRSEDTAVYYCARGEAVTGNYFYYGMDVWGQGTTVTVSSASTKGPSVFPLAPSSKSTSGGTAALGCLVKDYFPEPVTVSWNSGALTSGVHTFPAVLQSSGLYSLSSVVTVPSSSLGTQTYICNVNHKPSNTKVDKRVEPKSCDKTHTCPPCPAPEAAGGPSVFLFPPKPKDTLMISRTPEVTCVVVDVSHEDPEVKFNWYVDGVEVHNAKTKPREEQYNSTYRVVSVLTVLHQDWLNGKEYKCKVSNKALPAPIEKTISKAKGQPREPQVYTLPPSREEMTKNQVSLWCLVKGFYPSDIAVEWESNGQPENNYKTTPPVLDSDGSFFLYSKLTVDKSRWQQGNVFSCSVMHEALHNHYTQKSLSLSPG
chain 2: EAVVTQEPSLTVSPGGTVTLTCRSSTGAVTTSNYANWVQEKPGQLPRGLIGGTNKRAPWVPARFSGSLLGGKAALTLSGAQPEDEAEYFCALWYSNLWVFGGGTKLTVLGQPKAAPSVTLFPPSSEELQANKATLVCLISDFYPGAVKVAWKADGSPVNTGVETTTPSKQSNNKYAASSYLSLTPEQWKSHRSYSCQVTHEGSTVEKTVAPAECSGGGGSEGKSSGSGSESKSTEGKSSGSGSESKSTGGGGSEVQLVESGGGLVQPGGSLKLSCAASGFTFNTYAMNWVRQAPGKGLEWVARIRSKYNNYATYYADSVKDRFTISRDDSKNTAYLQMNNLKTEDTAVYYCVRHGNFGNSYVSWFAYWGQGTLVTVSAASTKGPSVFPLAPSSKSTSGGTAALGCLVKDYFPEPVTVSWNSGALTSGVHTFPAVLQSSGLYSLSSVVTVPSSSLGTQTYICNVNHKPSNTKVDKRVEPKSCDKTHTCPPCPAPEAAGGPSVFLFPPKPKDTLMISRTPEVTCVVVDVSHEDPEVKFNWYVDGVEVHNAKTKPREEQYNSTYRVVSVLTVLHQDWLNGKEYKCKVSNKALPAPIEKTISKAKGQPREPQVYTLPPSREEMTKNQVSLSCAVKGFYPSDIAVEWESNGQPENNYKTTPPVLDSDGSFFLVSKLTVDKSRWQQGNVFSCSVMHEALHNRFTQKSLSLSPG
notes: Heterodimer of one DLL3 chain and one CD3 chain (scFab-Fc, knob-in-hole)
B1 was tested, and the Kd (Human DLL3-His [1]) was < 0.01 nM.

B2: DLL3#4/CD3#1 (bispecific antibody, human IgG1, kappa, lambda, L234A L235A)
chain 1: not shown
chain 2: EAVVTQEPSLTVSPGGTVTLTCRSSTGAVTTSNYANWVQEKPGQLPRGLIGGTNKRAPWVPARFSGSLLGGKAALTLSGAQPEDEAEYFCALWYSNLWVFGGGTKLTVLGQPKAAPSVTLFPPSSEELQANKATLVCLISDFYPGAVKVAWKADGSPVNTGVETTTPSKQSNNKYAASSYLSLTPEQWKSHRSYSCQVTHEGSTVEKTVAPAECSGGGGSEGKSSGSGSESKSTEGKSSGSGSESKSTGGGGSEVQLVESGGGLVQPGGSLKLSCAASGFTFNTYAMNWVRQAPGKGLEWVARIRSKYNNYATYYADSVKDRFTISRDDSKNTAYLQMNNLKTEDTAVYYCVRHGNFGNSYVSWFAYWGQGTLVTVSAASTKGPSVFPLAPSSKSTSGGTAALGCLVKDYFPEPVTVSWNSGALTSGVHTFPAVLQSSGLYSLSSVVTVPSSSLGTQTYICNVNHKPSNTKVDKRVEPKSCDKTHTCPPCPAPEAAGGPSVFLFPPKPKDTLMISRTPEVTCVVVDVSHEDPEVKFNWYVDGVEVHNAKTKPREEQYNSTYRVVSVLTVLHQDWLNGKEYKCKVSNKALPAPIEKTISKAKGQPREPQVYTLPPSREEMTKNQVSLSCAVKGFYPSDIAVEWESNGQPENNYKTTPPVLDSDGSFFLVSKLTVDKSRWQQGNVFSCSVMHEALHNRFTQKSLSLSPG
notes: as for B1
With B2 the “EC50 (read off the curve)” value [2] was ~2 nM and the “EC50 (read off the curve)” value [3] was ~0.1 nM.

B3: DLL3#3/CD3#2 (bispecific antibody, human IgG1, kappa, lambda, L234A L235A)
chain 1: DIQMTQSPSAMSASVGDRVTITCRASQGISNYLVWFQQKPGKAPKRLIYAVSSLYSGVPSRFSGSGSGTEFTLTISSLQPEDFATYYCLQHDSYPYTFGQGTKLEIKRTVAAPSVFIFPPSDEQLKSGTASVVCLLNNFYPREAKVQWKVDNALQSGNSQESVTEQDSKDSTYSLSSTLTLSKADYEKHKVYACEVTHQGLSSPVTKSFNRGECGGGGSEGKSSGSGSESKSTEGKSSGSGSESKSTGGGGSQVQLVQSGAEVKKPGASVKVSCKASGYTFTSYYVHWVRQAPGQGLEWMVIINPGGGTTSYAQKFLGRVTMTRDTSTNTVYMELKSLRSEDTAVYYCARGEAVTGNYFYYGMDVWGQGTTVTVSSASTKGPSVFPLAPSSKSTSGGTAALGCLVKDYFPEPVTVSWNSGALTSGVHTFPAVLQSSGLYSLSSVVTVPSSSLGTQTYICNVNHKPSNTKVDKRVEPKSCDKTHTCPPCPAPEAAGGPSVFLFPPKPKDTLMISRTPEVTCVVVDVSHEDPEVKFNWYVDGVEVHNAKTKPREEQYNSTYRVVSVLTVLHQDWLNGKEYKCKVSNKALPAPIEKTISKAKGQPREPQVYTLPPSREEMTKNQVSLWCLVKGFYPSDIAVEWESNGQPENNYKTTPPVLDSDGSFFLYSKLTVDKSRWQQGNVFSCSVMHEALHNHYTQKSLSLSPG
chain 2: EAVVTQEPSLTVSPGGTVTLTCRSSTGAVTTSNYANWVQEKPGQLPRGLIGGTNKRAPWVPARFSGSLLGGKAALTLSGAQPEDEAEYFCALWYSNLWVFGGGTKLTVLGQPKAAPSVTLFPPSSEELQANKATLVCLISDFYPGAVKVAWKADGSPVNTGVETTTPSKQSNNKYAASSYLSLTPEQWKSHRSYSCQVTHEGSTVEKTVAPAECSGGGGSEGKSSGSGSESKSTEGKSSGSGSESKSTGGGGSEVQLVESGGGLVQPGGSLKLSCAASGFTFNTYAMNWVRQAPGKGLEWVARIRSKYINYATYYADSVKDRFTISRDDSKNTAYLQMNNLKTEDTAVYYCVRHGNFGNSYVSWFAYWGQGTLVTVSAASTKGPSVFPLAPSSKSTSGGTAALGCLVKDYFPEPVTVSWNSGALTSGVHTFPAVLQSSGLYSLSSVVTVPSSSLGTQTYICNVNHKPSNTKVDKRVEPKSCDKTHTCPPCPAPEAAGGPSVFLFPPKPKDTLMISRTPEVTCVVVDVSHEDPEVKFNWYVDGVEVHNAKTKPREEQYNSTYRVVSVLTVLHQDWLNGKEYKCKVSNKALPAPIEKTISKAKGQPREPQVYTLPPSREEMTKNQVSLSCAVKGFYPSDIAVEWESNGQPENNYKTTPPVLDSDGSFFLVSKLTVDKSRWQQGNVFSCSVMHEALHNRFTQKSLSLSPG
notes: as for B1
In the case of B3, the Kd (Human DLL3-His [4]) is reported as < 0.01 nM and the Kd (Cyno CD3 E+G HuFc-6xHis) is reported as 100 nM.
